Laboratory results from PMC3988567.

Target: ZnF-UBP domain from USP5 (human) (UniProt P45974)
Assay: ITC

ZnF-UBP domain from USP5 (human), sequence (P45974 163-291): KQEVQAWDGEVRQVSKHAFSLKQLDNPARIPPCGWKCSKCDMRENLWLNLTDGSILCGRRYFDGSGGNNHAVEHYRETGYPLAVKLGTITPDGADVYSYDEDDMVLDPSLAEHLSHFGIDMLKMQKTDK

stoichiometry N: 1
Substance: ubiquitin (from UniProt P0CG48 1-76) (natural protein)
